This note sets out measurements from patent US20250011431A1 (ADIVO, published 2025).

Test [1] has as its target T1, cPD-L1_hFc (canine PD-L1 Fc-fusion protein; Sino Biological Cat. 70110-D02H) (canine; human).
T1 construct: Bought product; also called canine PD-L1_hFc; cPD-L1 fusion protein; not shown: human Fc tag (hFc)
T1 chain: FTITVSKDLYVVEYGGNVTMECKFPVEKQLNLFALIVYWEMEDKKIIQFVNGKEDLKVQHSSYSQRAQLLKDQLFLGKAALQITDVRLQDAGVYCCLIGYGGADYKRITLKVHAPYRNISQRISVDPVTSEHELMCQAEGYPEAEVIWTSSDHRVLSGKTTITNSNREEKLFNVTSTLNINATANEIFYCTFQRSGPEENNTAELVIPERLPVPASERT
Description: binding ELISA, cPD-L1 fusion protein on the plate.

For test [2], the target named is T1, cPD-L1_hFc (canine PD-L1 Fc-fusion …). Description: ELISA ligand-binding inhibition, cPD-L1_hFc on the plate, competitor PD-1-Biotin (206 nM). The procedure: cPD-L1 fusion proteins were directly immobilized on the plate overnight at 4° C., commonly in a concentration of 57 nM. For […] ELISA, black 384 well Maxisorp plates were used. The coated plates were washed 3× with PBS-T, followed by blocking with Chemiblocker (Merck-Millipore; 2170) for 1 h at RT. The blocked plates were washed 3× with PBS-T, followed by addition of titration-series of blocking antibodies and incubation for 1 h at RT. Subsequently plates were washed again 3× with PBS-T and PD-1-Biotin (1× biotinylated via Avi-tag; Sinobiological Cat.: 70109-D27H-B) was added and incubated for 1 h at RT, usually in a concentration of 4 μg/ml (206 nM). This concentration of canine PD-1-Biotin was previously identified as optimal by titrating the binding of PD-1-Biotin towards immobilized canine PD-L1_hFc. After incubation with the ligand PD-1, the plate was washed 3× with PBS-T and suitable detection reagent for the biotinylated PD-1, usually Streptavidin-HRP, was added and incubated for 1 h at RT. Subsequently, the plate was washed 5×, followed by addition of Quanta Blue and measurement as described above for the screening ELISA.

The target is the same in test [3]. Nature of the test: binding ELISA, IgG titrated on plate-bound cPD-L1_hFc. As to the method:
cPD-L1 fusion proteins were directly immobilized on the plate, commonly in a concentration of 57 nM. For binding ELISA, black 384 well Maxisorp plates were used. This was performed overnight at 4° C. The coated plates were washed 3× with PBS-T, followed by blocking with Chemiblocker (Merck-Millipore; 2170) for 1 h at RT. After blocking, dilution series of the respective antibodies were added to the plate usually covering concentrations ranging from the single digit ng/ml to the single-digit ug/ml range. Antibodies were also incubated for 1 h at RT, followed by washing and by addition of suitable detection antibodies coupled to HRP. Measurement was carried out as described above for the Screening ELISA.

Test [4] concerns the target T2, canine PD-L1 on cells (canine).
T2 construct: also called wildtype canine PD-L1 on transfected HEK293c18 cells
T2 chain: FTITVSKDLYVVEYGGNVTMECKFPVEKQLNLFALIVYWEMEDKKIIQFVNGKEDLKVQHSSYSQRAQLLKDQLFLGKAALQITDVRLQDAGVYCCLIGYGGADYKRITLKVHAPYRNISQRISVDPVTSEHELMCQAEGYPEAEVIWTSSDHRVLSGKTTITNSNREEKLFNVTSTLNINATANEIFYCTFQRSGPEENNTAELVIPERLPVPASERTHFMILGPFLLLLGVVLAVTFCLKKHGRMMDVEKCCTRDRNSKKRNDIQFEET
Description: flow cytometry on HEK293c18 cells transfected with canine PD-L1. The procedure:
HEK293c18 cells were seeded in 6 well plates at a density of 1×10⁶ cells/well in DMEM+10% FCS. The next day, the transfection mix was prepared. […] Per well, 2 μg of the plasmid encoding for wildtype canine PD-L1 was diluted in 200 μl jetPRIME buffer. The solution was mixed and 4 μl of the transfection reagent was added, followed by mixing and centrifuging of the mixture. Then, the medium of the adherent cells is replaced by fresh medium and the transfection mix is carefully added onto the cells. The plate containing the transfected cells is placed back in the incubator and incubated for 24 h.
The cells were washed once by addition of 200 μl per well PBS/EDTA and centrifugation at 1500 rpm for 5 min. The supernatant was carefully decanted by holding the plate upside down above a waste and dried on a paper towel. Then, the cells were stained for dead cells with the dye Zombie violet (Biolegend; Cat.: 423114) diluted 1:500 in PBS/EDTA for 15 minutes at 4° C. in the dark. Subsequently, cells were washed with FACS Buffer (PBS/EDTA+2% FCS) as described above. Titration series of CAN1005016 and CAN1005019 usually ranging from 10 ng/ml to 10 μg/ml were prepared diluted in FACS buffer and added to the respective wells for a 30-minute incubation at 4° C. in the dark. […] Finally, the cells were washed again 3× and then resuspended in 200 μl FACS buffer and measured directly.

Test [5] addresses T3, PD-L1-his (canine).
T3 construct: also called monovalent PD-L1 antigen; not shown: his tag
T3 chain: T1 chain
Nature of the test: grating-coupled interferometry, KD compared with that of CAN1005010H2. As to the method:
(§1) To further characterize the kinetic properties of our candidates CAN1005016 and CAN1005019, the KD of our candidates was quantified using waveRAPID in a GCI system according to the procedure described below. The binding kinetics study was performed on the Creoptix® WAVEdelta system using a PAG sensor chip (Creoptix, a Malvern Panalytical brand). All experiments were performed with HBS-EP (Cytiva) as running buffer, at a temperature of 25° C. and sampling rate of 10 Hz. Data acquisition and evaluation were performed using WAVEcontrol software version 4.5.13.
Prior to ligand capturing, the sensor chip was conditioned by a 180 sec injection of 100 mM sodium borate, 1 M NaCl, pH 9 (Xantec). Antibody was diluted to 1 μg/ml in HBS-EP and captured to a density of =300 pg/mm2 on flow channel 2. Flow channel 1 was left blank to serve as a reference surface. For collection of kinetic data, PD-L1-his was diluted to 200 nM in HBS-EP and injected over ligand and reference surfaces in repeated analyte pulses of increasing duration (waveRAPID) at flowrate of 60 μl/min. PD-L1-his was injected for a total duration of 180 sec, followed by measuring complex-dissociation in running buffer for 30 min. Blank injections were performed to enable double referencing of the data and a 0.5% DMSO pulse injection (running buffer with 0.5% DMSO) was used as an analyte concentration modulation calibration curve. […]

Test [6] deals with T3, PD-L1-his. Nature of the test: grating-coupled interferometry (waveRAPID): antibody captured on PAG chip, PD-L1-his as analyte, 1:1 fit, 25 C. As to the method: as §1
Prior to ligand capturing, the sensor chip was conditioned by a 180 sec injection of 100 mM sodium borate, 1 M NaCl, pH 9 (Xantec). Antibody was diluted to 1 μg/ml in HBS-EP and captured to a density of =300 pg/mm2 on flow channel 2. Flow channel 1 was left blank to serve as a reference surface. For collection of kinetic data, PD-L1-his was diluted to 200 nM in HBS-EP and injected over ligand and reference surfaces in repeated analyte pulses of increasing duration (waveRAPID) at flowrate of 60 μl/min. PD-L1-his was injected for a total duration of 180 sec, followed by measuring complex-dissociation in running buffer for 30 min. Blank injections were performed to enable double referencing of the data and a 0.5% DMSO pulse injection (running buffer with 0.5% DMSO) was used as an analyte concentration modulation calibration curve. Data were corrected (X and Y offset, DMSO calibration, double referencing) and fitted with a simple 1:1 interaction model (global fit) to obtain kinetic parameters.

B1: CAN1005001 IgG (antibody, V domains shown)
VH: EVQLVESGGDLVKPAGSLRLSCVASGFTFSSYSMSWVRQAPEKGLQLVAGISSGGSSTYYTDAVKGRFTISRDNAKNTVYLQMNSLRAEDTAMYYCARGQGGRSSFDYWGQGTLVTVSS
VL: SYVLTQLPSVSVTLRQTARITCGGDSIGSKNVYWYQQKLGQAPVLIIYDDSSRPSGIPERFSGANSGNTATLTISGALAEDEADYYCQSYAMPLTGTVFGGGTQLTVL
notes: also called initial clone CAN1005001; parental clone CAN1005001
In test [1], B1 returned a half-maximal effective concentration (EC50) of 0.4 nM. In test [2], this molecule had an IC50 of 4.6 nM.

B2: CAN1005016 IgG (antibody, V domains shown)
VH: EVQLVESGGDLVKPGGTLRLSCVASGFTFSSYDMSWVRQSPGKGLQWVAVIWNTGSHAYYADAVKGRFTISRDNAKNTLYLQMNSLRAEDTAVYYCARGRQPRLVGTLDLWGQGTLVTVSS
VL: SYVLTQLPSVSVTLRQTARITCGGDSIGSKNVYWYQQKLGQAPVLIIYDDSSRPSGIPERFSGANSGNTATLTISGALAEDEADYYCQTYDSLVDVGVFGGGTQLTVLG
notes: also called biotinylated CAN1005016
Consider B2, for which the EC50 came out at 0.076 nM in test [3] and 10.5 nM in test [4]. The “fold improvement in affinity against CAN1005010H2” value in test [5] is more than 3 fold. Moreover, the IC50 in test [2] turned out to be 0.95 nM. Also, in test [6], binding was characterised by a dissociation constant (Kd) of 0.77 nM.
